Data: paper PMC10938568 (Science Advances, 2021)
Where two headings read alike, the source gives them in different places.

B1: GST-PreScission-p62 FIR 4P (domain or fragment)
chain: MESDNCSGGDDDWTHLSSKEVDPETGELQSLQMPESEGPEELDPEQEGPTGLKEA
B2: His8-TEV-GABARAP (1 to 117) (natural protein)
chain: MKFVYKEEHPFEKRRSEGEKIRKKYPDRVPVIVEKAPKARIGDLDKKKYLVPSDLTVGQFYFLIRKRIHLRAEDALFFFVNNVIPPTSATMGQLYQEHHEEDFFLYIAYSDESVYGL

What was measured:
Test in all cases: SPR
[1] = biological target: B2
His8-TEV-LC3B (1 to 125) = His8-TEV-LC3B (1 to 125) (human, UniProt Q9GZQ8 1-120)
[2] = biological target: T1, Biotinylated FLCN-8xGlycine-AviTag/FNIP2 (human, UniProt Q8NFG4;Q9P278, biotin on the AviTag)
[3] = biological target: T1, Biotinylated FLCN-8xGlycine-AviTag/FNIP2; remark: listed apart in the source

Binder	Kd [1]	Kd (His8-TEV-LC3B (1 to 125))	Kd [2]	Kd [3]
B1	670 ± 80 nM	820 ± 40 nM		
B2			0.071 ± 0.01 nM	0.3 ± 0.018 nM
